Assay [1] has as its target T1, KLK2 CAR KL2B413-LH expressed on SupT1 cells.
T1 construct: also called SupT1-KL2B413 LH; KL2B413-LH SupT1
Nature of the assay: flow cytometry on KL2B413-LH CAR SupT1 cells, directly PE-labelled antibody, PE median fluorescence. As to the method:
Multiple lots of PE-A002B39 were compared to assess differences in binding to KL2B413LH-SupT1 cells across batches. KL2B413-LH SupT1 cells (200,000 cells/well) were stained with LIVE/DEAD Fixable Near-IR viability dye and incubated with increasing concentrations of PE-A002B39 for 30 minutes on ice. After incubation, washing, and fixation, the samples were acquired on a 10 color FACSCanto II flow cytometer. Analysis was done using FlowJo analysis software and the PE median fluorescent intensity of live SupT1 cells is plotted in FIG. 7.
Background: Flow cytometry measures light scatter and fluorescence of single cells or particles in a stream.

The target of assay [2] is T2, KL2B513.
T2 construct: KL2B413-derived scFv-Fc fusion protein with the variable regions in VL-VH orientation; also called KL2B413-LH-scFv; KL2B413-LH scFv-Fc fusion protein; not shown: Fc part of the scFv-Fc fusion and its junction to the scFv
T2 sequence (scFv, as listed by the source limits assumed): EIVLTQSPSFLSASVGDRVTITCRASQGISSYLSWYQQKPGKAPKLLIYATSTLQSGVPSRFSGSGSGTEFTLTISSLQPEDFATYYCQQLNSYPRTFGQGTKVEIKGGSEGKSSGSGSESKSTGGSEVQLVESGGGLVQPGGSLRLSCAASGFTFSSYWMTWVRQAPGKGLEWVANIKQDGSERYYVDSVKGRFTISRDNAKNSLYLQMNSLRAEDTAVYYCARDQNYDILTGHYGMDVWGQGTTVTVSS
Nature of the assay: SPR, Biacore; antibody captured on anti-mouse Fc, scFv-Fc fusion as analyte. As to the method: Anti-Mouse Fc antibody directly immobilized on M5 sensor chip. Library Antibodies (Mouse IgG2a) diluted to 1 ug/ml to reach approximately 20-50 RU. Antigens (scFV Fc Fusions) are associated at 500 nM to 0.8 nM, 1:5 dilutions for 3 minutes. Dissociation for 30 mins.

For assay [3], the target named is T2, KL2B513. The assay is described as follows: SPR, ProteOn XPR36; antibody captured on anti-mouse Fc, scFv-Fc fusion as analyte. As to the method: (§1) ProteOn XPR36 system (BioRad) was used to perform binding assays. ProteOn GLC chips (BioRad, Cat#176-5011) were coated with Anti-Mouse Fc antibody. Library Antibodies (Mouse IgG2a) were diluted to 0.25 ug/ml to 1 ug/ml to reach approximately 100-200RL. Antigens (scFv-Fc Fusions) were associated at 1000 nM to 0.4 nM, 1:4 dilutions for 3 minutes, followed by dissociation for 30 mins. The results of the assay (Table 1 below) show similar binding affinity of A002B39 with both KLB513 and KLB610.
For orientation: Surface plasmon resonance follows binding to a sensor surface in real time, without labels.

In the next assay the target is T3, KL2B610.
T3 construct: KL2B413-derived scFv-Fc fusion protein with the variable regions in VH-VL orientation; also called KL2B413-HL-scFv; KLB610; not shown: Fc part of the scFv-Fc fusion and its junction to the scFv
T3 sequence (scFv, as listed by the source limits assumed): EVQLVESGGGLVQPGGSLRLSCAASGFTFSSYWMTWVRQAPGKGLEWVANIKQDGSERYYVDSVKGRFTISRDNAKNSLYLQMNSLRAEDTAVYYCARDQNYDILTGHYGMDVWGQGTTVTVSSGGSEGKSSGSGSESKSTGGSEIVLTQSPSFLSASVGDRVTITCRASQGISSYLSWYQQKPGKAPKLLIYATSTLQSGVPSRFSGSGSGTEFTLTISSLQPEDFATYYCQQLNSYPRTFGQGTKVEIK
Described as above. As for the experimental part:
as §1

In assay [4] the target is T1, KLK2 CAR KL2B413-LH expressed on SupT1 …. Nature of the assay: flow cytometry on KL2B413-LH SupT1 cells, PE goat anti-mouse IgG detection, PE median fluorescence. As for the experimental part: SupT1 cells expressing KL2B413LH were compared to parental CAR-SupT1 cells. Cells (100,000 cells/well) were stained with LIVE/DEAD Fixable Near-IR viability dye (Life Technologies L10119) and then incubated with increasing concentrations of A002B39 for 30 minutes on ice. Following incubation, the samples were washed with BSA stain buffer (BD Biosciences #554657) and stained with PE-goat anti-mouse IgG polyclonal antibody (Biolegend #405307) to detect bound antibody on live CAR+SupT1 cells. After incubation, washing, and fixation (Cytofix, BD Biosciences), the samples were acquired on a 10 color FACSCanto II (BD Biosciences) flow cytometer. Analysis was done using FlowJo and the PE median fluorescent intensity of live SupT1 cells is plotted in FIG. 4. […] No binding was detected on CAR-SupT1 parental cells.

This note sets out measurements from patent US20220064334A1 (Janssen / Centocor, published 2022).

For orientation: EC50 means the concentration at which the effect is half-maximal. One may read the Kd as the concentration at which binding is half-saturated. A higher Kd goes with lower affinity. For orientation: koff means the first-order rate constant of dissociation. The term kon denotes the second-order rate constant of association. A high value points to fast association.

T1 sequence (chain, as listed by the source limits assumed): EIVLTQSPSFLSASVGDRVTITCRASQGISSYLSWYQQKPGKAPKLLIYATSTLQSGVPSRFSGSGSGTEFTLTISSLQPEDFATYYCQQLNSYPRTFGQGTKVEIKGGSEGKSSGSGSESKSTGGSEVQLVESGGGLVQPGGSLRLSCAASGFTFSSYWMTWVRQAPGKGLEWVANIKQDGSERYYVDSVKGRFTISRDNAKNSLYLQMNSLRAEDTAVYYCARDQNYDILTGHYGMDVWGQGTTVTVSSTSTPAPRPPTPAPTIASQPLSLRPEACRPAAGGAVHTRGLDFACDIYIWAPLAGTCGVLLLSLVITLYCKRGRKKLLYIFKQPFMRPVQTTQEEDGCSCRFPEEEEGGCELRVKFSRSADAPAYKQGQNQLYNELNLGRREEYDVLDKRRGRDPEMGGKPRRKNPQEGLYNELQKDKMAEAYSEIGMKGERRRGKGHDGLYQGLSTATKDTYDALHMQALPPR

B1: PE-A002B39 (antibody, mouse IgG2a, kappa, V domains shown)
VH: EVQLVQSGAEVKKPGSSVKVSCKASGGTFSSYAISWVRQAPGQGLEWMGGIIPIFGTANYAQKFQGRVTITADESTSTAYMELSSLRSEDTAVYYCARVQWGLDYWGQGTLVTVSS
VL: EIVLTQSPATLSLSPGERATLSCRASQSVDSALAWYQQKPGQAPRLLIYGASNRATGIPARFSGSGSGTDFTLTISSLEPEDFAVYYCQQRFNWPITFGQGTKVEIKR
modifications: R-phycoerythrin conjugate, 1:1 PE:antibody; attachment site and chain not stated
notes: also called A002B39 conjugated to R-PE
As to B1, the EC50 in assay [1] is 1.6 µg/mL.

B2: A002B39 (antibody, mouse IgG2a, kappa, V domains shown)
VH: B1 VH
VL: B1 VL
notes: expressed in HEK293 Expi or CHO; also called A002M39
Turning to B2, the dissociation constant (Kd) was determined as 3.49 nM with KL2B513 [2], 0.99 nM in the assay with KL2B513 [3] and 1.11 nM with KL2B610. Moreover, the koff turned out to be 0.000202 s⁻¹ with KL2B513 [2], 0.000333 s⁻¹ in the assay with KL2B513 [3] and 0.000315 s⁻¹ with KL2B610. Moreover, the results for the kon in the assay with KL2B513 [2], with KL2B513 [3] and in the assay with KL2B610 were 57900 M⁻¹ s⁻¹, 339000 M⁻¹ s⁻¹ and 285000 M⁻¹ s⁻¹, respectively. In assay [4], this molecule returned a half-maximal effective concentration (EC50) of 0.4 µg/mL.
